Laboratory results reported in patent US20020009436A1, “Methods and compositions for inhibiting adhesion by microorganisms” (priority 1999, published 2002).

Tests used:
[1] = system: S. sobrinus 6715 glucan-binding lectin; experiment: Aggregation of S. sobrinus with high molecular weight dextran T-2000 (standard rate assay); assay type: cell-based, Streptococcus sobrinus; settings: cells treated with asparaginase
Procedure: S. sobrinus 6715 was maintained on tryptic soy agar (Difco, Detroit, Mich.) and grown for experiments in Terleckyj's defined medium or tryptic soy broth (TSB) (Difco) pretreated with dextranase (1 mg of enzyme per g dry medium) and invertase (5 mg per g dry medium) for 2 h each in 5% CO2 at 37° C. for 16-18h. Cultures were centrifuged at 12,000×g for 10 min and washed twice with cold phosphate buffered saline (PBS, 20 mM, pH 7.2). Cells were suspended in PBS to an optical density of 0.8 (A540). Cultures grown in TSB were harvested and suspended in PBS and subsequently treated with dextranase for 1 h, followed by washing two times in PBS.
The standard rate assay published by Drake et al. (Drake D. et al. Infect. Immun. 56:1864-1872 (1988)) was used to study the interaction of S. sobrinus 6715 glucan-binding lectin with high molecular weight dextran. Briefly, bacterial suspensions were adjusted to an optical density of 0.75-0.90 in PBS, and 3-ml suspensions were added to test tubes (13×100 mm). Dextran T-2000 was added at a final concentration of 10 1μg/ml and the suspensions were vortexed for 5 sec. Control tubes received PBS. The decrease in optical density was continuously monitored spectrophotometrically for 5 min. Rate constants were obtained from the slopes of first-order plots of ln A/A0 (A=observed optical density; A0 optical density at time zero) versus time in minutes. […]

[2] = system: E. coli possessing type 1 fimbriae; experiment: Adhesion of E. coli to a mannose receptor; assay type: cell-based; settings: E. coli treated with asparaginase versus untreated cells
Procedure: Materials and methods were generally as described in the Examples above, but modified for observing adhesion by E. coli to a mannose receptor. […] The E. coli were then incubated with a source of mannose receptor.

[3] = system: A. naeslundii ATCC 12104 (adhesin) / P. intermedia (receptor); experiment: Coaggregation A. naeslundii ATCC 12104 / P. intermedia; settings: P. intermedia (receptor) enzyme treated; polyphenol oxidase 90 U/ml, asparaginase 20 U/ml
Procedure: S. sanguis 10556, A. naeslundii strains 12104 and T14V and E. coli were grown static cultures in Todd-Hewitt broth (BBL Microbiology Systems, Cockeysville, Md.). P. gingivalis W50, A. actinomycetemcomitans and C. ochracea were grown in brain heart infusion broth (BBL). F. nucleatum 22586 and P. intermedia 25611 were grown in modified Schaedler broth (BBL). All oral species except S. sanguis 10556 were incubated at 37° C. as static cultures under an anaerobic atmosphere containing H2, CO2 and N2(10:10:80) with GasPaks (BBL). S. sanguis was incubated at 37° C. as static cultures in 5% CO2.
Bacteria were harvested in the mid to late exponential growth phase by centrifugation (10,000×g for 10 min at 4° C.). The cells were washed twice in coaggregation buffer (30 mM 3-[N-morpholino]propanesulfonic acid (MOPS), pH 7.0) and adjusted to an optical density of 0.6-0.8 at 540 nm (1-cm path). […]
Coaggregation was assessed by turbidity changes. Following mixing of the cells for 10 s on a Vortex mixer, absorbance readings were made every 30 min. The percentage of coaggregation was calculated from the following formula: Percent coaggregation=[OD540(A)+OD540(B)−OD540(A+B)]/(OD540(A)+OD540(B)), where A is the control containing cells of one strain, B is the control containing cells of the other strain, and A+B is the reaction mixture containing both cells. […]

B1: asparaginase: enzyme that catalyzes hydrolysis of the side chain amide group of asparagine to a carboxyl group; E. coli asparaginase (protein, UniProt P00805 23-348, looked up)
L-asparaginase 2: LPNITILATGGTIAGGGDSATKSNYTVGKVGVENLVNAVPQLKDIANVKGEQVVNIGSQDMNDNVWLTLAKKINTDCDKTDGFVITHGTDTMEETAYFLDLTVKCDKPVVMVGAMRPSTSMSADGPFNLYNAVVTAADKASANRGVLVVMNDTVLDGRDVTKTNTTDVATFKSVNYGPLGYIHNGKIDYQRTPARKHTSDTPFDVSKLNELPKVGIVYNYANASDLPAKALVDAGYDGIVSAGVGNGNLYKSVFDTLATAAKTGTAVVRSSRVPTGATTQDAEVDDAKYGFVASGTLNPQKARVLLQLALTQTKDPQQIQQIFNQY
ability of cells to aggregate high molecular weight dextrans [1]: reduced | binding to the mannose receptor [2]: reduced binding | Inhibition % of coaggregation [3]: 23%
